Test results taken from the supplement of paper PMC12042874.
± gives the uncertainty stated by the source.

assay: amyloid nucleation score (Sup35N fusion, yeast selection) (log enrichment); library NNK3; higher = more nucleation; inactive = no reads after selection
How it was run: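 Using DiMSum, nucleation scores were taken as the log enrichment of output over input reads, centred on the mode score of non-aggregating sequences. The input and output reads came from Illumina sequencing of plasmid inserts, with sequences under 100 input reads excluded. The yeast were psi-negative, expressed Sup35N fused to peptides of 20 random codons, were induced with 100 μM copper sulfate for 24 hours, and were grown 7 days at 30°C on medium lacking adenine and uracil.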

| Substance | amyloid nucleation score |
| --- | --- |
| NEWIKDINVI | inactive |
| FLRGLVK | inactive |
| RLLHSGRS | inactive |
| KYKAWMVCHTHWSTVKVKRL | inactive |
| NSFVVTCLVSVGKRGKSRWL | 1.25 ± 0.13 |
| MSSHFSSKAFGFHYGF | inactive |
| VWFLLSILPHLTKSVSWGNT | inactive |
| RQHFRYHGIFAEFGSTFVRS | inactive |
| NMFPGSISLEWWGGTQLRWE | 0.909 ± 0.23 |
| PFVFTLNDQCGGIRSLICVL | inactive |
| EMLKVLVHS | inactive |
| PVLNAAVHDNFFTADHIRKK | inactive |
| SNFTTPLHE | inactive |
| CKLCTFSKRLNLTFRMVASL | inactive |
| LDLNVIDRGWTPGTGTVQRM | inactive |
| NHQLGIGYFCDTYLCDHWDP | inactive |
| KDFGRLLLN | inactive |
| EYLLSSMRLSVILSAWYARC | inactive |
| NVIGPSNRVTSWMVKSMQMY | inactive |
| SSNFVFNLPSTWWSYYMTWV | -0.216 ± 0.75 |
| IRSILW | inactive |
| RTGTNS | inactive |
| YLRAAIL | inactive |
| TCLLMSPVFMVYFLLKTMNS | inactive |

| Substance | amyloid nucleation score |
| --- | --- |
| SWFALSLIIKTRVWT | inactive |
| CSLQNVTVGLLHSQVVSRWE | inactive |
| SNIMHQNVTCESFYCRSSLW | 1.81 ± 0.067 |
| SEGSNNVSCSI | inactive |
| QTLFRTLWRFIIITAKQSSD | inactive |
| SELRC | 0.114 ± 0.44 |
| CDVHL | inactive |
| TLSCYECPVVVRILVVRNCV | inactive |
| SSERSGRRRNWSVRSCLVGQ | inactive |
| SWAYL | inactive |
| SYMITLLKVIILSWHTYAVM | inactive |
| ANDGAHFFIIQLECHAEEVR | -0.303 ± 0.39 |
| YRWAFRWRLG | inactive |
| YSFLGRNSIISCIR | inactive |
| ASYYVKEFVQREHSIYAN | inactive |
| TCDIRCCTASPLYNRVM | 0.129 ± 0.47 |
| TSGGQRAAVWIYFTNEVMKY | 0.207 ± 0.34 |
| VPPFPRMEAGGYVHVVAFSV | inactive |
| LEAHESIRFCP | inactive |
| RWYWDHVRIDTYVVHSRTWR | 0.979 ± 0.13 |
| PLVYLGSLSGDQHWLYFSKE | inactive |
| ICYSNDSLYMLLESS | inactive |
| CDIRAAGSKLTDYPLSTRAS | inactive |
| KWSLFLYRHGWCRLAGTLLV | -0.443 ± 1 |

| Substance | amyloid nucleation score |
| --- | --- |
| TLFGFCAREIVRMRNDHIQV | inactive |
| RMIASAFFADCEKYVVNNLE | 0.028 ± 0.43 |
| MYLFRENGHQSGNVY | inactive |
| RARNTKLCNLSVCMTMGPEA | inactive |
| SPYPITGLFWCFINWSHKVM | inactive |
| APGIFPMSGMISYSLRV | inactive |
| TYYADTLAFNSTS | inactive |
| EGGCYSPKHG | 0.741 ± 0.28 |
| SLGVNLSISVGKYEYSLSLK | inactive |
| WLLTNNLDCQCCMCLDWMWC | 2.81 ± 0.057 |
| CFKSIITMNFYINWYFVSSP | inactive |
| RVCFLRINDGR | 0.06 ± 0.49 |
| LMTNRVVL | inactive |
| QNPTWC | inactive |
| MRQIAQRCRSGNAACIGSLG | 0.664 ± 0.23 |
| EGSEGSDMSRTFFYICYFIL | inactive |
| CWWCCATGTHSSSYIGRGVH | 0.844 ± 0.24 |
| ATRSLSDRPLEYCNNVDRKK | inactive |
| YLLHK | inactive |
| RDCSSAIYKCTWCMSF | inactive |
| SCSGAMTLWFRQPALKHIL | inactive |
| EVGCV | 0.76 ± 0.14 |
| VLTYTFRPSVSCSNKSKGSA | 0.107 ± 0.35 |
| FLCLSKGTGVAISKMSQN | inactive |

| Substance | amyloid nucleation score |
| --- | --- |
| QLNGCYCQFWMMKARTTKFH | 2.86 ± 0.054 |
| MNRNLLFASTLTFNFVLFVW | inactive |
| RAGVVVFIRRLRRLMGTLGA | -0.005 ± 1.1 |
| IRTTSPHHDSLSNEGVIDML | inactive |
| NCSWGRRKETTDLSGSKCWT | 0.881 ± 0.23 |
| FCATRTKVGLHGYASCEDCG | -0.249 ± 0.48 |
| FGSFQMGLWFVMNEVDQVKG | inactive |
| CVGVCKNLNRWFH | inactive |
| YSFECMSH | inactive |
| RLVMHSRHTMLLHARGLRSR | inactive |
| DLWAIGWGPFRVCSLLPWPL | inactive |
| SYISQEFYDFCFKPYLGSLY | inactive |
| IILVSYVREMKHSSSSFVLS | 2.04 ± 0.098 |
| RYRTRRALHVYDEFVFEFKP | -0.057 ± 0.68 |
| CSWVGAMFVQWNLPAPTEGI | 0.341 ± 0.37 |
| SRVISLFSGVCRGLRGYVNR | inactive |
| VNITLLRCEGSGMFGRSSKL | 1.13 ± 0.11 |
| RLWTFCFA | inactive |
| KYDCRGEMLFQ | inactive |
| FTGAMAFFLWFIQDYWFTGW | inactive |
| DWRLRSFICRAVVVCCINGD | 1.54 ± 0.077 |
| LWHSYFSFYLCVTFENRVIN | 2.79 ± 0.052 |
| GLSDGWVGHRSYGSENVLLK | inactive |
| DPIYVANARNHRLS | inactive |

| Substance | amyloid nucleation score |
| --- | --- |
| AYFLKEVNYMVKIYNLECRV | inactive |
| PTTKYFLYNIYSFV | 2.02 ± 0.079 |
| RLYVSKEFRSA | inactive |
| LHMIVALSSSSSMTYDVRVV | inactive |
| TLSWLRPPPSRPLLFHEVSW | -0.246 ± 0.8 |
| TATWSFNVT | inactive |
| ARFFVVGLWCVSIKIVPFFD | inactive |
| FLSFTSRNLTYFCDCRFSLI | inactive |
| GRIEKVVRNA | inactive |
| HDMVREVDPILFMTLFRGGF | -0.517 ± 1.2 |
| YCYAMS | inactive |
| MVNWPDGRILGSLRNWRHQD | inactive |
| AVTSLDVGFYV | inactive |
| EGFFYCCHFFRLYYNVVVLL | 2.02 ± 0.064 |
| TICLDLLDWEVEGPYNVVSG | inactive |
| FYSLIMHLKRLSYVA | inactive |
| MIRWTWNRKHTII | inactive |
| RVYGLFTLQYWYLNLYTKGR | 0.548 ± 0.36 |
| LNLWD | inactive |
| DCERVFSYMRKDQVPPVTLS | inactive |
| FSQWT | inactive |
| YSMQGYRCMYLGDNVAVLAF | inactive |
| FGYNWDCCRYMHDPRGLVTT | inactive |
